Assays:
[1] = molecular target: Fyn(R96I)-SH3, 6xHis C-terminal fusion (human) (UniProt P06241); assay: ITC
[2] = molecular target: Fyn(WT)-SH3, 6xHis C-terminal fusion (human) (UniProt P06241); assay: ITC
[3] = molecular target: Nef (Human immunodeficiency virus 1) (UniProt P04324); details: cited from earlier work

Fyn SH3 SH3, sequence (P06241 79-146): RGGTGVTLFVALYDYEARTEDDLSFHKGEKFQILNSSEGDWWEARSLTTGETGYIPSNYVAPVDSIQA
Fyn(R96I)-SH3, 6xHis C-terminal fusion (human), sequence (P06241 86-143 R96I): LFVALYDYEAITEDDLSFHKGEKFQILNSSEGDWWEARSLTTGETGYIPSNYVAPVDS
Fyn(WT)-SH3, 6xHis C-terminal fusion (human), sequence (P06241 85-141): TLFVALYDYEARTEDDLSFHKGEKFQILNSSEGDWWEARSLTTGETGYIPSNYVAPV

Kd [1] [µM] | Kd [2] [µM] | Substance | Kd [3] [µM]
54 | 160 | ALIXPI peptide (Alix residues 737 to 760) (from UniProt Q8WUM4 737-760) | 
 |  | Fyn SH3 SH3 (from UniProt P06241) | > 20

Source: paper PMC3378324
